According to article PMC5832332 (Nature, 2017):

Molecular target: the molecule itself
Assay: crystal structure

B1: Enterococcus faecalis Cas2 (natural protein, UniProt A0A3N3FLR9 1-109, looked up)
chain: MSYRYMRLLLMFDMPTDTASDRKAYRKFRKFLINEGFIMHQFSVYSKILLNDTANKAMLARLKQNNPQRGLITLLNVTEKQFSRMIYLHGEQDNRVANSDERIVFLGEE
- stoichiometry N: 2
